# Results taken from the DeepSol protein solubility set.
# Assay: soluble on expression in E. coli; label from the status in PepcDB or PDB records
row,Sequence,soluble on expression in E. coli
1,MDNKSEKVTVNKEELRKRLTPVQYQVTQEAGTERPFTGCYNKHYEKGVYQCIVCHQDLFSSETKYDSGCGWPAFNDVLDKGKVTLHRDASIPGGNILLLIAHPERIRTEVRCARCNAHMGHVFEDGPKPTRKRYCINSASIEFVNADPATSSPPVATPTAAPIAQQLEHHHHHH,soluble
2,ELNKNFDAVVDTAIARWRRSGPVVAMTRPDLKHGRGGLRDFELIKALALGHLCNLPQLDAQHQLLLDARTLLHVHARRSRDVLDPEFAVDVAMDLGFVDRYHLGREIADAARAIDDGLTTALATARGILPRRTGFAFRNASRRPLDLDVVDANGTIELSKKPDLNDPALPLRVAAAAATTGLPVAESTWVRLNECPPLPEP,not soluble
3,MSDDKFDAIVVGAGVAGSVAALVMARAGLDVLVIERGDSAGCKNMTGGRLYAHTLEAIIPGFAVSAPVERKVTREKISFLTEESAVTLDFHRGQPDVPQHASYTVLRNRLDPWLMEQAEQAGAQFIPGVRVDALVREGNKVTGVQAGDDILEANVVILADGVNSMLGRSLGMVPASDPHHYAVGVKEVIGLTPEQINDRFNITGEEGAAWLFAGSPSDGLMAGGFLYTNKDSISLGLVCGLGDIAHAQKSVPQMLEDFKQHPAIRPLISGGKLLEYSAHMVPEGGLAMVPQLVNEGVMIVGDAAGFCLNLGFTVRGMDLAIASAQAAATTVIAAKERADFSANSLAQYKRELEQSCVMRDMQHFRKIPALMENPRLFSQYPRMVADIMNEMFTIDGKPNQPVRKMIMGHAKKIGLINLLKDGIKGATAL,not soluble
4,MHTSELLKHIYDINLSYLLLAQRLIVQDKASAMFRLGINEEMATTLAALTLPQMVKLAETNQLVCHFRFDSHQTITQLTQDSRVDDLQQIHTGIMLSTRLLNDVNQPEEALRKKRA,soluble
5,MGSGEPNPAGKKKKYLKAALYVGDLDPDVTEDMLYKKFRPAGPLRFTRICRDPVTRSPLGYGYVNFRFPADAEWALNTMNFDLINGKPFRLMWSQPDDRLRKSGVGNIFIKNLDKSIDNRALFYLFSAFGNILSCKVVCDDNGSKGYAYVHFDSLAAANRAIWHMNGVRLNNRQVYVGRFKFPEERAAEVRTRDRATFTNVFVKNIGDDIDDEKLKELFCEYGPTESVKVIRDASGKSKGFGFVRYETHEAAQKAVLDLHGKSIDGKVLYVGRAQKKIERLAELRRRFERLRLKEKSRPPGVPIYIKNLDETINDEKLKEEFSSFGSISRAKVMMEVGQGKGFGVVCFSSFEEATKAVDEMNGRIVGSKPLHVTLGQARRRC,soluble
6,MSLQIAGKVVVVTGGGNGIGQALCEAFHKAGAAKVVVADLDQARAEAVAASIGGAAFKCDVANEADIKHVIEETERQFGPIDLFCSNAGIGGGFDPMAENAGGASDEPFMKSWMIHVMAHVYAARHLVPRYRARGGGYFLNTISAAGLLSQVGSPAYSATKHGAVGFAESLAIAHKAHNIRVSILCPQGVDTNMLRSIPKGPQSADGDLTAEQVAKDALQGIEQETFLILPHPQVIDYMRKKTEGHHHHHH,soluble
7,MKLEVTPKAQQWFKEETGVQPETGIRFFGKIYGKTPVHDGFSIAMSVEAPDEPMIKENLDGITYFIEETDDWFFKGYDLIVDYDEKNDEPRYQFEANQEDLTK,not soluble
8,MTKPLDGINVLDFTHVQAGPACTQMMGFLGANVIKIERRGSGDMTRGWLQDKPNVDSLYFTMFNCNKRSIELDMKTPEGKELLEQMIKKADVMVENFGPGALDRMGFTWEYIQELNPRVILASVKGYAEGHANEHLKVYENVAQCSGGAAATTGFWDGPPTVSGAALGDSNSGMHLMIGILAALEIRHKTGRGQKVAVAMQDAVLNLVRIKLRDQQRLERTGILAEYPQAQPNFAFDRDGNPLSFDNITSVPRGGNAGGGGQPGWMLKCKGWETDADSYVYFTIAANMWPQICDMIDKPEWKDDPAYNTFEGRVDKLMDIFSFIETKFADKDKFEVTEWAAQYGIPCGPVMSMKELAHDPSLQKVGTVVEVVDEIRGNHLTVGAPFKFSGFQPEITRAPLLGEHTDEVLKELGLDDAKIKELHAKQVV,soluble
9,MGSDKIHHHHHHMENQTGIFNSYKIDPAHFDEAWLPTGDVRMHYKHLMETFKGLDIEEYLKINELAKGNLFNQGVTFNVYSENAEGVERLFPFDLFPRMIPSEEWKTIEVGIKQRNKAINLFLWDIYHEQKILKDKIVPSELLFSSQFYKKEMIGVDPPAGIYIHITGTDIIKHNDGKYYVLEDNLRCPSGVSYVLSNRETMKKIFFNLFSRYHVKPIMQYTEKLLSTIRSVAPDRIDNPLCVILTPGTYNSAYFEHSFLAHQMGIQLVEGRDLFVEKNFVYMKTIKGPKRVDVIYRRVDDDFIDPLVFNPKSVLGVPGLMSAYQAGNVTIINAPGTGVADDKAVYTYVPDIIKYYLGEEPILNNVPTYRCERPDEMKYVLENMHNLVVKPVDESGGYGVFIGNRKTKEEIEEYKKLILDTPRKYIAQPIMSLSVLSTFIEDSNESEQRHIDLRSFALMGKEETYVLDGGLTRVALSKGNLIVNSSQGGGSKDTWVIENY,not soluble
10,MAHHHHHHMADATLLHHLIEVLPKAELHVHIEGTLSPELLFELAKRNGVQIPYKTVEEVRVAYNFTDLQSFLDLYYEGMSVLITEDDFEDLAYAYTRVMHESRVVHAEPFFDPQGHLCRGVTFRVLYDGLMRGFRRGEAEFGVSVMLIFSFLRHLSEEECLALVLDDMHPDNGQYIRELFVAKAFVAVGLDSSELGHPPEKFARLYRYCREELKVPFLVAHAGEEGPPEYMRDAMSMLKVDRIDHGVAARLDQALCKDLREKRIPLTVCPTSNVALKVFQDRATCGAVVMDLILTEGLCVTINSDDPAYFGGDIRESFRILAETGRLTPATLKQLVLNSFSSSFIADDSKRAYKERVEKVFKDVCGGTYE,soluble
11,MGSDKIHHHHHHVPSACRLSTCRFQDVCLSQIAAYWPARFTRTSEGVGKMAEMVTIKEADLIESVADALQYISYFHPMDYIRALGEAYKAEQGPAAKDAIAQILTNSRMCAEGHRPICQDTGIVNVFIEWGQDCRLESDLSLQDVVDEGVRRAYNNPDNKLRASVLADPAFTRRNTRDNTPCVLHVEMVKGNKVTVDVAAKGGGSENKSKFKMMNPSDSIVDWVIEMLPQMGAGWCPPGMLGIGIGGTAEHCVLLAKKALMEPIDMAQLKQRGPQTDIERLRIEIFDKVNALGIGAQGLGGLSTILDVKIMDAPCHAAGKPVAMIPNCAATRHAHFTLDGSGPTFLERPKLDEWPEVHWAPDSAARRVDLDTLTQEEVQSWKAGDRLLLNGKMLTGRDAAHKRIKDMLAKGEELPVDFKGRVIYYVGPVDPVRDEVVGPAGPTTATRMDSFSDTMLDLGLLASVGKAERGPAATQSIANHKSAYLMAVGGAAYLVARAIKEAKVVGFEDLGMEAIYEFTVEDMPVTVAVDSGGQNVHQLAPLVWKKKIAEEHLLPA,not soluble
12,MLASKMRWEIQRPDQDKVKSLTEQLHITPLVASLLVKRGFDTAESARLFLHTKDADFYDPFEMKGMKEAADRIKQAISQQEKIMIYGDYDADGVTSTSVMLHTLQKLSAQVDFYIPDRFKEGYGPNEQAFRSIKERGFSLIITVDTGIAAVHEAKVAKELGLDVIITDHHEPGPELPDVRAIVHPKQPGCTYPFKELAGVGVAFKLAHALLGELPDELLDLAAIGTIADLVPLHDENRLIATLGLERLRRTNRLGLKELIKLSGGDIGEANEETVGFQLAPRLNAVGRIEQADPAVHLLMSEDSFEAEELAAEIDQLNKERQKMVSKMTDEAIEMVEQQGLDQTAIVVAKAGWNPGVVGIVASKLVDRFYRPAIVLGIDEEKGIAKGSARSIRGFNLFESLSECRDILPHFGGHPMAAGMTLKAEDVPDLRSRLNEIADNTLTEEDFIPVQEVDLVCGVEDITVESIAEMNMLSPFGMLNPKPHVLVENAVLEDVRKIGANKTHVKMTIRNESSQLDCVGFNKGELQEGIVPGSRISIVGEMSINEWNNRKKPQLMIKDAAVSEWQLFDLRGKRTWEDTVSALPSAKRAIVSFKEDSTTLLQTEDLRREVHVISSKDQAKAFDLDGAYIVLLDPPPSLDMLARLLEGKAPERIYFIFLNHEDHFLSTFPARDHFKWYYAFLLKRGAFDVKKHGSELAKHKGWSVETINFMTKVFFDLGFVKIENGVLSVVSGAKKRDLTDSQTYQAKQQLMELDQKLNYSSAEELKEWLNKLMKQDSEAYESTRR,not soluble
13,MTKTMIRLASEQDAEKLQQLMHEAFTPLRELGIDWPSVNANLDAVKENIDKNTTFVMTIDDEIISTITVRYPWGSVKSISGYPFVWWFATNPEYEGKGYGSQLLTYVEEAFLRDTLKSAAVTLGTSARLHPWLLKIYEKRGYEIYSEHENDDGDLGVIMRKVLIPERFDETILGQPPF,not soluble
